Consider 57 substances from the supplement of paper PMC12042874.

± gives the uncertainty stated by the source.

The nature of this series: amyloid nucleation score (Sup35N fusion, yeast selection) (log enrichment); library NNK1; higher = more nucleation; inactive = no reads after selection. The method, boiled down:
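Peptides of 20 random codons fused to Sup35N were expressed in psi-negative yeast, induced 24 hours with 100 μM copper sulfate, then grown 7 days at 30°C on medium lacking adenine and uracil. Input and output plasmid inserts were Illumina-sequenced. Nucleation score is the DiMSum log enrichment of output over input reads, centred on the mode score of non-aggregating sequences, excluding sequences with under 100 input reads. Random libraries had three technical output replicates.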
On to SGKLCWLCVNCVILGSCKSL, for which the amyloid nucleation score is -0.442 ± 0.73.
Next, TSVSARFFFCRKISRMHRSS: -0.885 ± 1.1; CRPVGRRYKWFTFSGGLLLR: 1.14 ± 0.9; KGKECKRFLVNTKIGSNRT: “inactive”.
Next, RPPCCKWRDRRCTWGIS: 0.017 ± 0.51.
To KHICTAFRSVEFAEGIR belongs 0.658 ± 0.46; to AMNRHGLWKSSVSRGILFFS, 0.129 ± 0.35.
For the substance CFMCTGAGCILNEMPRNLLG, the amyloid nucleation score worked out at 7.793 ± 0.071.
In turn, PRRHYGLRFGHGHLISVWLR came in with an amyloid nucleation score of 0.642 ± 0.41.
Take CSGSTRVKHFHRFFTNWLLM: the amyloid nucleation score came out at 0.323 ± 0.63.
To LLGVLWFKVSCGARAQLGIW belongs -0.197 ± 1.9.
Next, YWFCNRIGIVGIVLSGYLCL: -0.154 ± 0.26; HVTNSWNSKGLRTSSGDTNV: 0.305 ± 0.4.
For QDRYR, the amyloid nucleation score amounted to 0.156 ± 0.56.
Next, DFNYPDSSCLGFKCLNAHWV: -0.731 ± 0.33.
Take YNPGG: the amyloid nucleation score is -0.248 ± 0.26.
To RFIFIQRVNRVFLQDSWKMV belongs 6.39 ± 0.075; to RSSSHYRSDERPIDFVNEQE, -1.16 ± 0.77.
Next, MMPYQSWDESSSCEDTLKVT: 0.453 ± 0.35; PDIRYAFVNFDYLATIWVNG: -1.86 ± 1.7.
To RSQSCLVYYWTRFRPVYRFA belongs 0.671 ± 0.29; to NSLCRLSGCCGVLRDLPLVM, -0.232 ± 0.33; to MASLDGFLFNCWLRRLGFRA, -0.397 ± 0.4.
PFLNVEHFVMVDRFIVPDI returned an amyloid nucleation score of 0.559 ± 0.79.
To TFLSTLIALISRFSRSESWM belongs 1.24 ± 0.93; to SGNTSPCCVSKFDLPHSTGK, 0.245 ± 0.3.
Regarding MLKRVVVLLRPSVRGRVDRV, the amyloid nucleation score was -0.11 ± 0.28.
VLIDMSGSCSKAMHAIRQDR: the amyloid nucleation score came to 0.218 ± 0.73.
To IVWESLFNKFAITVGMLGFM belongs 1.63 ± 0.43; to SEMHHCTRGG, -0.167 ± 0.9; to LFLNTNSRKYTKMDTILILS, -0.359 ± 0.4.
Next, TSTSC: 0.223 ± 0.51; AVIEYR: -0.582 ± 0.32; HNGDCMITACNTGVLAGYIS: 1.88 ± 0.26.
To IYLMIGHWESNNKLNICVLP belongs 3.7 ± 0.11; to LYVYTYYVMVLVGQKR, -0.698 ± 0.93; to FCPPYLSHNNYYWLLVRVFV, 0.322 ± 0.37.
On to VLDEYFCNLC, for which the amyloid nucleation score was found to be 5.989 ± 0.058.
Take LMLGKLWFPGMCYESKWELG: the amyloid nucleation score was -0.181 ± 1.
To NQYLPS belongs -0.126 ± 1.2; to LVKYKKV, -0.088 ± 0.43.
SGWNEFTRGTTRVHWRNQYS registered an amyloid nucleation score of -1.48 ± 2.4.
Turning to KVGYLYEAIGGKDDL, the amyloid nucleation score is -0.605 ± 1.1.
To VGSGSDQQYALMSNLYSKLS belongs 1.02 ± 0.7.
LFDWWCFEKYLICRVGSLTF yielded an amyloid nucleation score of -0.091 ± 0.51.
Next, RCINGNIYNKSW: 0.18 ± 0.26.
Regarding NLTCSLMVCRWFPIPVL, the amyloid nucleation score stood at 0.171 ± 0.38.
MFVSDQINYCMSTVAVH yielded an amyloid nucleation score of 0.201 ± 0.27.
Next, TARYTGGNTNIRSGKFLVWI: 0.075 ± 0.35; KSRSRLPCTRSHTIEFVRMR: 0.831 ± 0.56; VVVVKLQVQCDGESMSACLG: -0.495 ± 1.5.
For the substance VLVDGSRSWGG, the amyloid nucleation score is 0.952 ± 0.52.
Next, FMPFASKCGCPN: 0.595 ± 0.41; PWISFTKYKTLSYETHPGWF: 0.544 ± 0.79; INLNRHGSLE: 1.6 ± 0.39.
To LVLMWLLSGYGAHHFYYAK belongs 0 ± 1.2.
Consider TYNVLSTLWRFCVIVLRICC, for which the amyloid nucleation score is 0.558 ± 1.1.
